Test results published in PMC7822847, “Structural insights into vesicle amine transport-1 (VAT-1) as a member of the NADPH-dependent quinone oxidoreductase family” (Scientific Reports, 2021).

Columns and labels:
[1] = target: the molecule itself; test: crystal structure; free form of VAT-1 (43–393), 2.3 Å; crystals from 100 mM BisTris pH 6.0, 200 mM sodium nitrate, 22% PEG 3350, 20 °C
[2] = target: the molecule itself; test: SEC; Superdex 200 (10/30), 10 mM Tris–HCl pH 7.2, 100 mM NaCl, 0.5 mM TCEP, 8 °C; higher concentrations (loaded at 300 µM, no NADP); dimers to tetramer (dimer–dimer)
[3] = target: the molecule itself; test: SEC; Superdex 200 (10/30), 10 mM Tris–HCl pH 7.2, 100 mM NaCl, 0.5 mM TCEP, 8 °C; low concentration (samples loaded at 10, 20, 50 µM; also with 10-fold molar NADP); monomers to dimer

B1: N-truncated human VAT-1 (43–393 residues) (domain or fragment, UniProt Q99536 43-393, looked up)
chain: ASPPLLRCLVLTGFGGYDKVKLQSRPAAPPAPGPGQLTLRLRACGLNFADLMARQGLYDRLPPLPVTPGMEGAGVVIAVGEGVSDRKAGDRVMVLNRSGMWQEEVTVPSVQTFLIPEAMTFEEAAALLVNYITAYMVLFDFGNLQPGHSVLVHMAAGGVGMAAVQLCRTVENVTVFGTASASKHEALKENGVTHPIDYHTTDYVDEIKKISPKGVDIVMDPLGGSDTAKGYNLLKPMGKVVTYGMANLLTGPKRNLMALARTWWNQFSVTALQLLQANRAVCGFHLGYLDGEVELVSGVVARLLALYNQGHIKPHIDSVWPFEKVADAMKQMQEKKNVGKVLLVPGPEKEN
notes: Written as the protomer; homodimer in both crystal forms, dimer to tetramer (dimer-dimer) in solution by SEC; also called vesicle amine transport protein-1; source: E. coli Rosetta 2 (DE3), purified (Glutathione Sepharose, HRV 3C cleavage, HiTrap SP, Superdex 200); not shown: GST, N-terminal, cleaved
For B1, the “stoichiometry N” value [1] was 2.

B2: human VAT-1 (full-length, 1–393 residues) (natural protein, UniProt Q99536 1-393, looked up)
chain: MSDEREVAEAATGEDASSPPPKTEAASDPQHPAASEGAAAAAASPPLLRCLVLTGFGGYDKVKLQSRPAAPPAPGPGQLTLRLRACGLNFADLMARQGLYDRLPPLPVTPGMEGAGVVIAVGEGVSDRKAGDRVMVLNRSGMWQEEVTVPSVQTFLIPEAMTFEEAAALLVNYITAYMVLFDFGNLQPGHSVLVHMAAGGVGMAAVQLCRTVENVTVFGTASASKHEALKENGVTHPIDYHTTDYVDEIKKISPKGVDIVMDPLGGSDTAKGYNLLKPMGKVVTYGMANLLTGPKRNLMALARTWWNQFSVTALQLLQANRAVCGFHLGYLDGEVELVSGVVARLLALYNQGHIKPHIDSVWPFEKVADAMKQMQEKKNVGKVLLVPGPEKEN
notes: Written as the protomer; dimer at low concentration, tetramer at 300 µM by SEC; also called vesicle amine transport protein-1; source: E. coli Rosetta 2 (DE3), purified (Glutathione Sepharose, HRV 3C cleavage, HiTrap SP, Superdex 200); not shown: GST, N-terminal, cleaved
B2 was tested, and the “stoichiometry N” value [2] was 4 and the “stoichiometry N” value [3] was 2.
